The results in this text go back to US20200087364A1 (IMMATICS BIOTECHNOLOGIES, published 2020).

This test concerns the target T1, HLA-A*01:01 (human).
T1 construct: MHC class I monomer first loaded with a UV-sensitive peptide (not identified) that is cleaved by UV irradiation and exchanged for the tested peptide; captured on streptavidin plates, detected with anti-β2m; also called peptide-receptive MHC molecules
Kind of test: UV-ligand exchange, anti-b2m ELISA. An excerpt:
Candidate peptides for T cell based therapies according to the present invention were further tested for their MHC binding capacity (affinity). The individual peptide-MHC complexes were produced by UV-ligand exchange, where a UV-sensitive peptide is cleaved upon UV-irradiation and exchanged with the peptide of interest as analyzed. Only peptide candidates that can effectively bind and stabilize the peptide-receptive MHC molecules prevent dissociation of the MHC complexes. To determine the yield of the exchange reaction, an ELISA was performed based on the detection of the light chain (β2m) of stabilized MHC complexes. The assay was performed as generally described in Rodenko et al. (Rodenko et al., 2006)
96 well MAXISorp plates (NUNC) were coated over night with 2 ug/ml streptavidin in PBS at room temperature, washed 4× and blocked for 1 h at 37° C. in 2% BSA containing blocking buffer. Refolded HLA-A*02:01/MLA-001 monomers served as standards, covering the range of 15-500 ng/ml. Peptide-MHC monomers of the UV-exchange reaction were diluted 100-fold in blocking buffer. Samples were incubated for 1 h at 37° C., washed four times, incubated with 2 ug/ml HRP conjugated anti-β2m for 1 h at 37° C., washed again and detected with TMB solution that is stopped with […]. Absorption was measured at 450 nm.
(ELISA stands for enzyme-linked immunosorbent assay.)

LADTDLGMTF displayed a peptide exchange yield of 20 to 50%.

On to KTIQEVAGY, for which the peptide exchange yield was 20 to 50%.

QSTTGVSHY displayed a peptide exchange yield of 50 to 75%.

ITDFGLAKL returned a peptide exchange yield of 20 to 50%.

AQISDTGRY gave a peptide exchange yield of 20 to 50%.

With MMTDLTSVY, the peptide exchange yield lay in the range of 50 to 75%.

LCAAVLAKY registered a peptide exchange yield of 20 to 50%.

SSTDFTFASW yielded a peptide exchange yield of 10 to 20%.

For VQIAKGMNY, the peptide exchange yield lay in the range of 50 to 75%.

Regarding YHRICELLSDY, the peptide exchange yield is over 75%.

Take KLAGTVFQY: the peptide exchange yield was in the range of 20 to 50%.

The molecule FTRAFDQLRM displayed a peptide exchange yield of 50 to 75%.

QTDINGGSLK: the peptide exchange yield is 50 to 75%.

DIPDYLLQY came in with a peptide exchange yield of 50 to 75%.

The molecule LTEGHSGNY had a peptide exchange yield of over 75%.

For HTDLESPSAVY, the peptide exchange yield was in the range of 50 to 75%.

For KLTDYINANY, the peptide exchange yield lay in the range of 20 to 50%.

On to AVSSGLFFY, for which the peptide exchange yield was in the range of 20 to 50%.

The molecule EADPFLKYL returned a peptide exchange yield of 20 to 50%.

As for KIRAEVLSHY, the peptide exchange yield was in the range of 20 to 50%.

Turning to SQNGQLIHY, the peptide exchange yield is 50 to 75%.

ASWAVLCYY yielded a peptide exchange yield of 50 to 75%.

LLEGEDAHLTQY yielded a peptide exchange yield of 50 to 75%.

The molecule CYTADNEMGY gave a peptide exchange yield of 50 to 75%.

For the molecule NVKEAPTEY, the peptide exchange yield was 20 to 50%.

In turn, VQDPSLPVY came in with a peptide exchange yield of 20 to 50%.

Consider LLEADPFLKY, for which the peptide exchange yield was over 75%.

The molecule EVLGEEMYAY had a peptide exchange yield of 20 to 50%.

For FRGVFVHRY, the peptide exchange yield fell in the range of 20 to 50%.

VSVYNSYPY returned a peptide exchange yield of 20 to 50%.

In turn, VDPIGHLY yielded a peptide exchange yield of 20 to 50%.

The molecule RMQEGSEVY gave a peptide exchange yield of 20 to 50%.

The molecule VSSTVHNLY had a peptide exchange yield of over 75%.

With LSQDELSKF, the peptide exchange yield fell in the range of 20 to 50%.

TQRTSFQFY returned a peptide exchange yield of 20 to 50%.

RLAQYTIERY yielded a peptide exchange yield of 20 to 50%.

For TQPELSSRY, the peptide exchange yield was in the range of 20 to 50%.

Regarding LVDGKWQEF, the peptide exchange yield lay within 20 to 50%.

For TSEVEGLAFVSY, the peptide exchange yield is 50 to 75%.

Molecule SVTDLIGGKW registered a peptide exchange yield of 20 to 50%.

For the molecule VSDSTTEITY, the peptide exchange yield was 50 to 75%.

With NDEIDKLTGY, the peptide exchange yield was over 75%.

For LLISKAEDY, the peptide exchange yield was in the range of 20 to 50%.

Regarding SLPEFGLTYY, the peptide exchange yield lay in the range of 20 to 50%.

As for IADNPQLSFY, the peptide exchange yield was over 75%.

Take NSDESADSEPHKY: the peptide exchange yield is over 75%.

In turn, FSEPFHLIV registered a peptide exchange yield of 50 to 75%.

For the molecule YTADNEMGYY, the peptide exchange yield was in the range of 50 to 75%.

With RSDPVSLRY, the peptide exchange yield was over 75%.

In the case of NSDISIPEY, the peptide exchange yield was 50 to 75%.

Regarding LSSAVNPIIY, the peptide exchange yield was in the range of 20 to 50%.

In the case of GLEYEAPKLY, the peptide exchange yield lay within 20 to 50%.

RAVQPGETY showed a peptide exchange yield of 50 to 75%.

On to YLNEWGSRF, for which the peptide exchange yield is 20 to 50%.

For the molecule TVDNANILL, the peptide exchange yield lay in the range of 20 to 50%.

In turn, LAFYYGMY came in with a peptide exchange yield of 20 to 50%.

In turn, LSAQHRMLA registered a peptide exchange yield of 20 to 50%.

VQPGETYTY: the peptide exchange yield was 50 to 75%.

Take TQKSVQVLAY: the peptide exchange yield fell in the range of 20 to 50%.

In turn, RQAPGPARDY showed a peptide exchange yield of 20 to 50%.

Molecule SLPEFGLTY returned a peptide exchange yield of 20 to 50%.

In turn, EAAPDIMHY displayed a peptide exchange yield of 20 to 50%.
